Article PMC10391610, “Survivin prevents the polycomb repressor complex 2 from methylating histone 3 lysine 27” (iScience, 2023)

Molecular target: T1, survivin (His-tagged, from pHIS8) (human, UniProt O15392 1-142)
T1 construct: survivin, human, residues 1-142 (142 amino acids), called the full-length construct; plasmid pHis8-survivin obtained from the Verdecia lab (doi 10.1038/76838); The tag is detected by the anti-His antibody on the microarray; For NMR the protein was uniformly 15N labelled (M9 medium); For MST one copy was labelled with the GREEN-MALEIMIDE (cysteine reactive) dye; also called survivin_(1-142); …
T1 sequence (O15392 whole entry, the tested form may be a part): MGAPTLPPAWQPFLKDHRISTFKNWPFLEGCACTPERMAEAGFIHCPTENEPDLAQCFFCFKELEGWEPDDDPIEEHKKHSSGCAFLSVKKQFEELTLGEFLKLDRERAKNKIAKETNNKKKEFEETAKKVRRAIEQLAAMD
Test: NMR titration; peptides titrated into [U-15N]-survivin (0.3 mM); 2D [15N,1H]-SOFAST-HMQC; NMR buffer (50 mM Tris, 150 mM NaCl, 1 mM DTT, pH 7.5), 298 K; global signal attenuation fitted with a logistic function (critical peptide concentration, cpc)
Conditions: both partners purified

| Binder | NMR cpc (critical peptide concentration) [µM] |
| --- | --- |
| PLRPQEMEVDSEDEKDPEWLREKTI (suppressor of zeste 12 (SUZ12), residues 573-597; source: synthetic peptide, bought: Biomatik (purified to 95%)) [SUZ12_(573-597) peptide] | 0.0066 |
| SQGEIRLLQSYVDADADENFYTCAW (embryonic ectoderm development (EED), residues 128-152; source: synthetic peptide, bought: Biomatik (purified to 95%)) [EED_(128-152) peptide] | 0.0076 |
| PNSMVYFGSSQDEEEVEEEDDETED (source: synthetic peptide, bought: Biomatik (purified to 95%)) [JARID2_(170-194) peptide] | 0.0085 |
| VELVNALGQYNDDDDDDDGDDPEEREEKQKDLEDHRDDKE (source: synthetic peptide, bought: Biomatik (purified to 95%)) [EZH2_(172-211) peptide] | 0.0021 |
